One substance from patent US20130011436A1 can be followed below.

The target in the assay is CXCR4 on murine 4T1 breast carcinoma cells (murine) (UniProt P70658). In words: cell-based or functional assay.
UniProt P70658, sequence (P70658 whole entry): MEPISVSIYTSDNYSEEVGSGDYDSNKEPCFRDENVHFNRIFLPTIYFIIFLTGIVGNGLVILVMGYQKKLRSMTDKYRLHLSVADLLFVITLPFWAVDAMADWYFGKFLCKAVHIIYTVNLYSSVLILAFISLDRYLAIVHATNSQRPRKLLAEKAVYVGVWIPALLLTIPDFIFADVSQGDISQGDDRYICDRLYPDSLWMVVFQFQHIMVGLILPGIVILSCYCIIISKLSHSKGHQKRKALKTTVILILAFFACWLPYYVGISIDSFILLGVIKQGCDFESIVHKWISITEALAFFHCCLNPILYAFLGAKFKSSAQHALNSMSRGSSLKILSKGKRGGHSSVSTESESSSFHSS

CTCE-9908 peptide: the inhibition of migration of 4T1 cells toward SDF1 (1,000 ng/ml), transwell assay, antagonist at 100 µg/ml was above 80%.
